This data set is described as follows: soluble on expression in E. coli; label from the status in PepcDB or PDB records.
For the sequence “MTVSSHRLELLSPARDAAIAREAILHGADAVYIGGPGFGARHNASNSLKDIAELVPFAHRYGAKIFVTLNTILHDDELEPAQRLITDLYQTGVDALIVQDMGILELDIPPIELHASTQCDIRTVEKAKFLSDVGFTQIVLARELNLDQIRAIHQATDATIEFFIHGALCVAYSGQCYISHAQTGRSANRGDCSQACRLPYTLKDDQGRVVSYEKHLLSMKDNDQTANLGALIDAGVRSFKIEGRYKDMSYVKNITAHYRQMLDAIIEERGDLARASSGRTEHFFVPSTEKTFHRGSTDYFVNARKGDIGAFDSPKFIGLPVGEVVKVAKDHLDVAVTEPLANGDGLNVLIKREVVGFRANTVEKTGENQYRVWPNEMPADLHKIRPHHPLNRNLDHNWQQALTKTSSERRVAVDIELGGWQEQLILTLTSEEGVSITHTLDGQFDEANNAEKAMNNLKDGLAKLGQTLYYARDVQINLPGALFVPNSLLNQFRREAADMLDAARLASYQRGSRKPVADPAPVYPQTHLSFLANVYNQKAREFYHRYGVQLIDAAYEAHEEKGEVPVMITKHCLRFAFNLCPKQAKGNIKSWKATPMQLVNGDEVLTLKFDCRPCEMHVIGKIKNHILKMPLPGSVVASVSPDELLKTLPKRKG”, the “soluble on expression in E. coli” value is recorded as “soluble”.

On to “MHHHHHHSSGRENLYFQGIPTISELKKDRIIPHVFPNDKIDLNVDLFISFKAGKEVNHGNVLDIAGTGSVPRNIKFSEEPPDGYCFVLFMVDPDYPSRLRPDGKEYIHWVVSGIKTKELIKGTQKNCVTILPYVGPSIKKGTGLHRISFIISLIKEEDKDNITGLPHYKGEKYITRVKFNNYESVHNIAQINNMKIVGYNWCQIE”, for which the “soluble on expression in E. coli” value is “soluble”.

On to “MQKELFRQSPDSNKLILFFNGWAMTREAVSHLAIPPEYDLLHVWDYRTDTLHFDWSPYREICLSAWSMGVWAAERLSREGRLPSVVSAVAICGTGYPMDDTMGIPLDIFRGTLDGLTEENRLRFNRRMCGGKSLKHLLEALAARETDEIKAELGRVYEEEEKRLKSDDPHPVAPLSWDKALIGAKDRIIPAKNQQAFWQMRGCRNIETVAEGDHYLFNRFTEWEQLWS”, for which the “soluble on expression in E. coli” value is listed as “not soluble”.

In the case of “EEDWVLPSEVEVLESIYLDELQVIKGNGRTSPWEIYITLHPATAEDQDSQYVCFTLVLQVPAEYPHEVPQISIRNPRGLSDEQIHTILQVLGHVAKAGLGTAMLYELIEKGKEILTDNNIPHGQ”, the “soluble on expression in E. coli” value is reported as “soluble”.

In the case of “MGSDKIHHHHHHLNTDPSTAVPSDDAIKNIDDAQVALNGIYRLASAHSYYGDNYLYYADCRGEDVQARINKGAGRRVSPYYFFDVTADDNFNITLVWNQPYKVIHQANSLIEKLDAGNAGNARPEEVARIKSEALAMRGLALFDLTRLFGMPYTLDNGASLGVPIEIQTTLEDHAPERNTVAQCYEQVLKDLNDALGGLTKEKHDAYMNYWSVKALLSRVYLYMNDNENALKCAEEVINDNGGIYRLFTHDEYPSVWGKDFNSESLFEFYFTMSEPSGGSGGEGAPMVYADNVKDWNNLILTKAYLDLLNEDPEDVRHVFPHLPENAVADTLPVAAKGQPKYLIKYPGKSGSVTDAVSTVNPQDNDLCILRLSEVYLNAAEAAFKIGNTEKALTYLNAIVTRANPAKSVTSADLSLERILKERRKELVGEGHAFFDYMRNGKSVDRSGGWHLTMPEDARVIAPSDPRVALPIPQTEIDANPNIVQNPR”, the “soluble on expression in E. coli” value is on record as “not soluble”.

“MRHPIPDYLASLVTELGAVNPGETAQYIPVLAEADPDRFGIALATPTGRLHCAGDADVEFTIQSASKPFTYAAALVDRGFAAVDRQVGLNPSGEAFNELSLEAESHRPDNAMINAGALAVHQLLVGPEASRKERLDRAVEIMSLLAGRRLSVDWETYESEMAVSDRNLSLAHMLRSYGVLQDSAEEIVAGYVAQCAVLVTVKDLAVMGACLATGGIHPMTGERMLPSIVARRVVSVMTSSGMYDAAGQWLADVGIPAKSGVAGGVLGALPGRVGIGVFSPRLDEVGNSARGVLACRRLSEDFRLHLMDGDSLGGTAVRFVEREGDRVFLHLQGVIRFGGAEAVLDALTDLRTGAEKPGTGWDAAVYPRWQEAAADRAALSAATGGGAVHEAAAAAARDENDGPIRTVVLNLARVDRIDDVGRRLIAEGVRRLQADGVRVEVEDPERILPLEEAGAH”: the “soluble on expression in E. coli” value is recorded as “soluble”.

Source of the values: the DeepSol protein solubility set.
